Measurements from patent US20240092930A1 (MABWELL SHANGHAI BIOSCIENCE, published 2024).
Numbering of substitutions follows the chain as printed.

Legend:
[1] = target: T1, human Trop-2 on the surface of cells (CHO/Trop-2 cells; BxPC-3 cells; NCI-N87 cells) (human, UniProt P09758 27-323); assay: FACS, CHO/Trop-2 cells
T1 construct: whole, on cells; One molecule for all cell lines; the cell line is named under assay or readout; also called Trop-2 on the surface of CHO cells; recombinant human Trop-2 protein on the surface of CHO cells
T1 sequence (looked up): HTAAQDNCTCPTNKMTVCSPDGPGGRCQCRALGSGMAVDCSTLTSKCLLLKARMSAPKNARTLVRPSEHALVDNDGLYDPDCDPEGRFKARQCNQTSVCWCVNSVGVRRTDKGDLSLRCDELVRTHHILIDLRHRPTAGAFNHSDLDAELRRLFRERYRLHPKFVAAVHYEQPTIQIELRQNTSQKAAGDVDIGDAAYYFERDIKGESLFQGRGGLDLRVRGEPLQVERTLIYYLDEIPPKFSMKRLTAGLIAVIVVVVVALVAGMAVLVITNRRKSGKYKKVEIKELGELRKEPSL
Procedure: Suspensions of CHO cells recombinantly expressing human Trop-2 (CHO/Trop-2 cells) were incubated with chimeric antibodies ch3-11, ch4-3, ch17-1, ch11-4, and ch23-12 (dilutions at concentrations of 30 μg/ml and 10 μg/ml, and serial dilutions of 9 concentrations obtained through 3-fold serially diluting a solution with an initial concentration of 5 μg/ml, 11 concentrations in total) for 30 min at 37° C. Controls as follows were set: (1) Positive Control (PC): control antibody Sacituzumab; (2) Negative Control (NC): IgG1 isotype control antibody NC-IgG1. The cells were washed 3 times with PBS, and 1:100 dilution of goat anti-human IgG-FITC (Cat.: F9512, Sigma) was added into the cell which then were incubated for 30 min. Then the cells were washed 3 times with PBS again, and the Mean Fluorescence Intensity (MFI) of the cells was measured by a flow cytometer (model B49007AD, SNAW31211, BECKMAN COULTER) to detect binding ability of the chimeric antibodies to human Trop-2 on the surface of CHO cells.

[2] = target: T1, human Trop-2 on the surface of cells …; assay: cell-based or functional assay
[3] = target: T2, recombinant human Trop-2-his protein (ACCESSION NO.: NP_002344.2, AA 1-274) (human, UniProt P09758 27-274); assay: ELISA, coated Trop-2-his 0.2 µg/ml
T2 construct: range 27-274; also called recombinant human Trop-2 protein; recombinant human Trop-2 extracellular domain; not shown: his tag
T2 sequence (looked up): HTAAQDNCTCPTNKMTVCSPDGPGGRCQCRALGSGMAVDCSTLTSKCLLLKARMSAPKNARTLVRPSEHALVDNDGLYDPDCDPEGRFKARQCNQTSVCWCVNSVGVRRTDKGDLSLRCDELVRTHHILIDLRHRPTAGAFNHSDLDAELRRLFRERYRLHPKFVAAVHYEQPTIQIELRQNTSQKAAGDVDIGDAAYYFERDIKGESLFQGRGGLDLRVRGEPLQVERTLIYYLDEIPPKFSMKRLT
Procedure: Plates were coated with recombinant human Trop-2-his protein (ACCESSION NO.: NP_002344.2, AA 1-274) at a concentration of 0.2 μg/ml overnight at 4° C. and then blocked with 5% BSA for 60 min in a constant temperature incubator at 37° C. Chimeric antibodies ch3-11, ch4-3, ch17-1, ch11-4, and ch23-12 and control antibody Sacituzumab (serial dilutions of 8 concentrations in total obtained through 3-fold serially diluting a solution with an initial concentration of 2 μg/ml) were added into the plates which were then incubated in a constant temperature incubator at 37° C. for 60 min. The plates were washed with PBST 4 times, and 1:5000 dilution of HRP-anti-human Fc (Cat.: 109-035-098, Jackson ImmunoResearch) was added into the plates for reaction for 45 min. TMB (Cat.: ME142, GalaxyBio, Beijing) substrate was added for color development for 15 min, and then 2M HCl was added to stop reaction. Absorbances at 450 nm and at 630 nm (as reference wavelength) were read, and A450 nm-630 nm values of the wells in the plates were recorded.

[4] = target: T1, human Trop-2 on the surface of cells …; assay: cell-based or functional assay; remark: listed apart in the source
[5] = target: T2, recombinant human Trop-2-his protein …; assay: BLI, antibody on AHC sensor, Trop-2-his 60 nM
Procedure: 5-6 days after cell transfection, culture supernatants were purified through ProA affinity chromatography column to obtain different humanized antibodies. Affinities of the obtained antibodies were determined by an assay including capturing Fc fragments of the antibodies with anti-human IgG Fc capture (AHC) biosensors using Octet QKe system instrument from Fortebio. For the assay, each of the humanized antibodies and control antibody Sacituzumab was diluted to 4 μg/ml in PBS, and was allowed to flow through the surface of an AHC biosensor (Cat.: 18-0015, PALL) for 120 s. Recombinant human Trop-2-his protein (ACCESSION NO.: NP_002344.2, AA 1-274) was used as a mobile phase, and its concentration was 60 nM. The binding time was 100 s and the dissociation time was 300 s. When the assay was finished, data from which the response values of blank control had been deducted were fitted to a 1:1 Langmuir binding model using software, and then kinetic constants for antigen-antibody binding were calculated.
Affinities of the antibodies obtained from the combinations of mutants of murine antibody 11-4, chimeric antibody ch11-4 and control antibody Sacituzumab to recombinant human Trop-2-his protein were determined by ForteBio (Table 11).

[6] = target: T2, recombinant human Trop-2-his protein …; assay: BLI, naked antibody on AHC sensor, Trop-2-his 60 nM, 300 s binding
Procedure: Affinities of the antibodies were determined by an assay including capturing Fc fragments of the antibodies with anti-human IgG Fc capture (AHC) biosensors using Octet QKe system instrument from Fortebio.
For the assay, SN38-labeled antibodies prepared as described above: h23-12-SN38, ch4-3-SN38, ch11-4-SN38, and positive control antibody Sacituzumab-SN38, as well as naked antibodies h23-12, ch4-3, ch11-4, and positive control antibody Sacituzumab were diluted to 4 μg/ml with PBS and allowed to flow through the surface of an AHC biosensor (Cat.: 18-0015, PALL) for 120 s. Recombinant human Trop-2-his protein (ACCESSION NO.: NP_002344.2, AA 1-274) was used as a mobile phase, and its concentration was 60 nM. The binding time was 300 s and the dissociation time was 300 s. When the assay was finished, data from which the response value of blank control had been deducted were fitted to a 1:1 Langmuir binding model using software, and then kinetic constants for antigen-antibody binding were calculated.

[7] = target: T2, recombinant human Trop-2-his protein …; assay: BLI, antibody on AHC sensor, Trop-2-his 60 nM; remark: listed apart in the source
Procedure, shortened: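 Octet BLI: humanized antibodies at 4 μg/ml in PBS captured 120 s on anti-human IgG Fc (AHC) biosensors, then exposed to 60 nM Trop-2-his (AA 1-274) for 100 s association and 300 s dissociation. Blank-subtracted data fitted to 1:1 Langmuir model for kinetic constants.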

B1: chimeric antibody ch3-11 (antibody, human IgG1, V domains shown)
VH: QVQLQQPGAELVKPGSSVKLSCKASGYTFTSYWMYWVKQRPGQGLEWIGEINPSNGRTNYNEKFKSKATLTVDKSSSTAYMQFSSLTSEDSAVYYCTREGHNYDGSLGAMDHWGQGTSVTVSS
VL: DVVVTQTPLSLPVSFGDQVSISCRSSQSLTNSYGNTFLSWYLHKPGQSPQLLLYGISNRFSGVPDRFSGSGSGTDFTLKINTIKPEDLGMYYCFQSTHQPYTFGGGTKLEIK
- EC50 [1]: 0.993 nM
- Internalization percentage (%), 1 h, BxPC-3 cells, FACS [2]: 1.12%
- Internalization percentage (%), 3 h, BxPC-3 cells, FACS [2]: -5.13%
- Internalization percentage (%), 5 h, BxPC-3 cells, FACS [2]: -8.48%
- EC50 [3]: 0.315 nM

B2: chimeric antibody ch11-4 (antibody, human IgG1, V domains shown)
VH: QVQLQQPGAELVRPGASVNLSCKASGYTFTSYWINWVKQRPGQGLEWIGNIYPSNSYTNYNQKFKDTATLTVDKSSSTAYMQLSSPTSEDSAVYFCSSYRSDGFAYWGQGTLVTVSA
VL: DILLTQSPAILSVSPGEKVSFSCRASQNIGTSIHWYQQRTNGSPRLLIEFASESISGIPSRFSGSGSGTDFTLTINSVESEDIADYYCQQSNSWPFTFGGGTKLEIK
- EC50 [1]: 1.15 nM
- Internalization percentage (%), 1 h, BxPC-3 cells, FACS [2]: -2%
- Internalization percentage (%), 3 h, BxPC-3 cells, FACS [2]: -7.4%
- Internalization percentage (%), 5 h, BxPC-3 cells, FACS [2]: -9.38%
- Internalization percentage, 1 h, BXPC-3 cells, FACS [4]: 15.5%
- EC50 [3]: 0.237 nM
- Kd [5]: 0.264 nM
- Kd [6]: 0.176 nM

B3: h11-4-9 (antibody, human IgG1, kappa, name in Kabat numbering, V domains shown)
VH: EVQLVQSGAEVKKPGASVKVSCKASGYTFTSYWINWVRQAPGQGLEWMGNIYPSNSYTNYNQKFKDRVTMTRDTSTSTVYMELSSLRSEDTAVYYCSSYRSDGFAYWGQGTLVTVSS
VL: EIVLTQSPATLSLSPGERATLSCRASQNIGTSIEWYQQKPGQAPRLLIEFASESISGIPARFSGSGSGTDFTLTISSLEPEDFAVYYCQQSNSWPFTFGGGTKVEIKR
- Kd [5]: 0.301 nM

B4: h11-4-15 (antibody, human IgG1, kappa, name in Kabat numbering, V domains shown)
VH: B3 VH with D102G
VL: B3 VL with E34S
- Kd [5]: 0.389 nM

B5: h11-4-16 (antibody, human IgG1, kappa, name in Kabat numbering, V domains shown)
VH: B3 VH with G103A
VL: B3 VL with E34S
- Kd [5]: 0.231 nM

B6: h11-4-11 (antibody, human IgG1, kappa, name in Kabat numbering, V domains shown)
VH: B3 VH with D102G
VL: B3 VL
- Kd [5]: 0.375 nM

B7: h11-4-13 (antibody, human IgG1, kappa, name in Kabat numbering, V domains shown)
VH: B3 VH
VL: B3 VL with E34S
- Kd [5]: 0.211 nM

B8: h11-4-18 (antibody, human IgG1, kappa, name in Kabat numbering, V domains shown)
VH: B3 VH with D102E
VL: B3 VL with E34A
- Kd [5]: 0.394 nM

B9: h11-4-19 (antibody, human IgG1, kappa, name in Kabat numbering, V domains shown)
VH: B3 VH with D102G
VL: B3 VL with E34A
- Kd [5]: 0.254 nM

B10: h11-4-10 (antibody, human IgG1, kappa, name in Kabat numbering, V domains shown)
VH: B3 VH with D102E
VL: B3 VL
- Kd [5]: 0.351 nM

B11: h11-4-17 (antibody, human IgG1, kappa, name in Kabat numbering, V domains shown)
VH: B3 VH
VL: B3 VL with E34A
- Kd [5]: 0.238 nM

B12: h11-4-14 (antibody, human IgG1, kappa, name in Kabat numbering, V domains shown)
VH: B3 VH with D102E
VL: B3 VL with E34S
- Kd [5]: 0.352 nM

B13: h11-4-12 (antibody, human IgG1, kappa, name in Kabat numbering, V domains shown)
VH: B3 VH with G103A
VL: B3 VL
- Kd [5]: 0.282 nM

B14: h11-4-20 (antibody, human IgG1, kappa, name in Kabat numbering, V domains shown)
VH: B3 VH with G103A
VL: B3 VL with E34A
- Kd [5]: 0.21 nM

B15: chimeric antibody ch23-12 (antibody, human IgG1, V domains shown)
VH: QVQLQQPGAELVKPGASVKLSCKADGYIFTSYWMHWVKQRPGQGLEWIGEITPSDNYTSYNQKFKGKATLTVDKSSSTAYMQLSSLTSEDSAVYYCTRGHGNYVSFDYWGQGTTLTVSS
VL: DIQMTQITSSLSASLGDRVTITCRASQDISNYLNWYQQKPDGTVKLLIYYTSRLHSGVPSRFSGSGSGTDYSLTISNLEQEDIATYFCQQGYTLPPYTFGGGTKLEIK
- EC50 [1]: 2.75 nM
- Internalization percentage (%), 1 h, BxPC-3 cells, FACS [2]: 16.2%
- Internalization percentage (%), 3 h, BxPC-3 cells, FACS [2]: 21.1%
- Internalization percentage (%), 5 h, BxPC-3 cells, FACS [2]: 27.1%
- EC50 [3]: 0.458 nM
- Kd [7]: 0.715 nM

B16: chimeric antibody ch17-1 (antibody, human IgG1, V domains shown)
VH: EVKLVESGGVLVKPGGSLKLSCAASGFTFSDSAMSWVRQTPEKRLEWVASISRGDDTYYPDSVKGRITISRDFARNILYLQMTSLRSEDTAMYYCTRDRFGFAYWGQGTLVTVSA
VL: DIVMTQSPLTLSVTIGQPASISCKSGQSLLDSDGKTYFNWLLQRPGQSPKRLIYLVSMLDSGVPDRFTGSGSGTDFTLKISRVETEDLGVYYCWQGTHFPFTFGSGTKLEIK
- EC50 [1]: 2.92 nM
- EC50 [3]: 0.328 nM
